# Assay results published in patent US20110014635.
# Tests used:
# Alcadein γ = system: T1, Alcadein γ
# T1 sequence: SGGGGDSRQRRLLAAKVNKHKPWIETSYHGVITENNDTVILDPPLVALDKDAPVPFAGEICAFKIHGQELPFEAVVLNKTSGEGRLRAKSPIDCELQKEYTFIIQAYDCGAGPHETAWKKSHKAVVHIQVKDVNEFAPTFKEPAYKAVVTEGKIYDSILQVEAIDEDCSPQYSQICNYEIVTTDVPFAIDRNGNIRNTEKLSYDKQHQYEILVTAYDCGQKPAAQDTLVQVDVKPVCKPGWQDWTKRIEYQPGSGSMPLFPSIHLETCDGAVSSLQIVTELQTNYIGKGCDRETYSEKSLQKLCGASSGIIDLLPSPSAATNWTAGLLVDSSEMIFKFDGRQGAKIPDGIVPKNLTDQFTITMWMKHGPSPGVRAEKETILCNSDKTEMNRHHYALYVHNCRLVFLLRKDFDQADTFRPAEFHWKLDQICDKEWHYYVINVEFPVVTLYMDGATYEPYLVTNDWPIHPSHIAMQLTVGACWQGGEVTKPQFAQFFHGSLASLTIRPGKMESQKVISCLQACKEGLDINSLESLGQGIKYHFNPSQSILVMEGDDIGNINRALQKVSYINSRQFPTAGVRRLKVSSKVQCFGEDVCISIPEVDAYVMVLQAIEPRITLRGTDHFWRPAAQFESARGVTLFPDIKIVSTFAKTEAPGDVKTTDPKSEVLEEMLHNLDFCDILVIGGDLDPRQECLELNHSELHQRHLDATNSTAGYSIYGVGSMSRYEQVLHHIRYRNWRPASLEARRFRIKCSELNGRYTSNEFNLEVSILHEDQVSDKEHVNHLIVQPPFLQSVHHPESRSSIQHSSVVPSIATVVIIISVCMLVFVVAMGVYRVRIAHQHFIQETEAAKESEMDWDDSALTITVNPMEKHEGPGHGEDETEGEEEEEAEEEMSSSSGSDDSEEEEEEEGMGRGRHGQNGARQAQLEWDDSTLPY
# Alcadein α (human Alcα1) = system: T2, Alcadein α (human Alcα1)
# T2 sequence: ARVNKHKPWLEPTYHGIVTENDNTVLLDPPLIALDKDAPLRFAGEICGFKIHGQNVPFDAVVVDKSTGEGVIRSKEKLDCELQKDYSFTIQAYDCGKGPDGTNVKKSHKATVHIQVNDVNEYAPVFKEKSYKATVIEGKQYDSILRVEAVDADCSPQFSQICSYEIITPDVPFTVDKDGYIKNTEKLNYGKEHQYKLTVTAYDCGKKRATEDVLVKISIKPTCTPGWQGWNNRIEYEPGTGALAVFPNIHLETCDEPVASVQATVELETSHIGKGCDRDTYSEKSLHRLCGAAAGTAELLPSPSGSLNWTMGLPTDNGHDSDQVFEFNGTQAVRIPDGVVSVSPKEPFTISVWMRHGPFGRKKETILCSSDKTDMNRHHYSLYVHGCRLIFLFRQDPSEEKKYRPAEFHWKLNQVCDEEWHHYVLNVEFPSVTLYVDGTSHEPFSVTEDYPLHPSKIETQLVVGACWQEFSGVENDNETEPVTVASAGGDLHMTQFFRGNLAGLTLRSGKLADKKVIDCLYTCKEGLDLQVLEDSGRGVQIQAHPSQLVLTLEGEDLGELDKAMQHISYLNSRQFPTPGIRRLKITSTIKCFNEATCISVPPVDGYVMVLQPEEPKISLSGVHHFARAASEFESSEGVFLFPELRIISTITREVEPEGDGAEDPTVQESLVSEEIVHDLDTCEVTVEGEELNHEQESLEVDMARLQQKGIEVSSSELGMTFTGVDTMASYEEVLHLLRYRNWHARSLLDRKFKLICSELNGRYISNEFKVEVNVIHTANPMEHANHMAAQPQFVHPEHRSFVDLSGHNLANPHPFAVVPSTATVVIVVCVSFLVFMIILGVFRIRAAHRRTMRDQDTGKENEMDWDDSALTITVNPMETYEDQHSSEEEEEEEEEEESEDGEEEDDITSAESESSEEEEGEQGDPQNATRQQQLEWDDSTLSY
# Alcadein β = system: T3, Alcadein β
# T3 sequence: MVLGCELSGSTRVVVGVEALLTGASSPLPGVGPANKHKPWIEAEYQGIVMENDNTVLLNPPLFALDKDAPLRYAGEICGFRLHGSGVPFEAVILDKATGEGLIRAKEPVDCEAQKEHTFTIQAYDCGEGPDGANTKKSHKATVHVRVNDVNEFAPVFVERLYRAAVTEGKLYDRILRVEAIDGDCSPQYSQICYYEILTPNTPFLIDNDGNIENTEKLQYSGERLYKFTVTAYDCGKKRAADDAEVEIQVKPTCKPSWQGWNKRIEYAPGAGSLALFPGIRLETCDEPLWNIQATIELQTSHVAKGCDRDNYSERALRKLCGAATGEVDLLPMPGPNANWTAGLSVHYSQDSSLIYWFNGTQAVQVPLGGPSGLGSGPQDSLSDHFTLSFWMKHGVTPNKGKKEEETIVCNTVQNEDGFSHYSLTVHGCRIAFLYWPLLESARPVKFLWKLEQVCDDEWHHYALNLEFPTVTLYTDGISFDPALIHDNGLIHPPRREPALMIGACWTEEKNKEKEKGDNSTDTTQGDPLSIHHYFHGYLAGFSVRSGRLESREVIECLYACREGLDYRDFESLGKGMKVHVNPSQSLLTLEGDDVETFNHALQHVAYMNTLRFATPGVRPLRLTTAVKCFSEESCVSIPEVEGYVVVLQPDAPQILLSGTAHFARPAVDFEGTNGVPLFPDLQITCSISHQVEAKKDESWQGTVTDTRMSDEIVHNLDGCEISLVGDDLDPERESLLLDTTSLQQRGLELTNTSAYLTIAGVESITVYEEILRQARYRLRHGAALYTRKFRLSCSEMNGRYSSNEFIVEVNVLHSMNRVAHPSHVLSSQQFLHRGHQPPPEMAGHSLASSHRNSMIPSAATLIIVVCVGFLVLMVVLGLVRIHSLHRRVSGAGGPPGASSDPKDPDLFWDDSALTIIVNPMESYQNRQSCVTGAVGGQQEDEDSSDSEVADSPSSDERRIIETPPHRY
substance,measurement,setting,value
"presenilin (endogenous, HEK293 cells)","fragments containing the C-terminal from incubated membrane fractions, Western blot",Alcadein γ,such fragments were not detected in the samples to which the presenilin inhibitor was added
same,"fragments containing the C-terminal (Alcα-ICD) from incubated membrane fractions, Western blot",Alcadein α (human Alcα1),such fragments were not detected in the samples to which the presenilin inhibitor was added
same,"fragments containing the C-terminal from incubated membrane fractions, Western blot",Alcadein β,such fragments were not detected in the samples to which the presenilin inhibitor was added
